The experiment addresses T1, His-tagged cyt-SpoIIE (cytosolic part of SpoIIE), fluorescently labeled (B. subtilis).
T1 sequence (P37475 whole entry, looked up): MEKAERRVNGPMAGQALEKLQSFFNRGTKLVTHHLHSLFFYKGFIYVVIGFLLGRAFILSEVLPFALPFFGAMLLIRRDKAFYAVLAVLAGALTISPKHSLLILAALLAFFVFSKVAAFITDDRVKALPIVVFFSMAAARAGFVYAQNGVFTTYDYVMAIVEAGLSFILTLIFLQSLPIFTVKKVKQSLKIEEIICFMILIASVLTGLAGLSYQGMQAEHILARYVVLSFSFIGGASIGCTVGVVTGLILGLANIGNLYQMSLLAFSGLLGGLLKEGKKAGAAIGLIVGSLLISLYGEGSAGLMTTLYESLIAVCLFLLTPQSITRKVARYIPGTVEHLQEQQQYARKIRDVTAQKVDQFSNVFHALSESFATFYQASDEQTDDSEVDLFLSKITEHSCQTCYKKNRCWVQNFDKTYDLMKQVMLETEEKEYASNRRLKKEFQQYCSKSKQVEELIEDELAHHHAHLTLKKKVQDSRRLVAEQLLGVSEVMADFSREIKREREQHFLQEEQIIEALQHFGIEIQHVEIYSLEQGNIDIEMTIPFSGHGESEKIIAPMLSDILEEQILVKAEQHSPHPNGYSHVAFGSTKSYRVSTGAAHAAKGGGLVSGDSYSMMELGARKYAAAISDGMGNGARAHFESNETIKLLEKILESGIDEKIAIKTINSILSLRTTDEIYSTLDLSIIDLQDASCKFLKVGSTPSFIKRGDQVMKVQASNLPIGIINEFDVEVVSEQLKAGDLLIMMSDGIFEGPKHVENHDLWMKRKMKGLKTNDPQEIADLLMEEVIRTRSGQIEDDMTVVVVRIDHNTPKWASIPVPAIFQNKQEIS
Put plainly: MST; labeled cyt-SpoIIE constant at 34 μM, unlabeled cyt-RodZ titrated 6.7 nM to 221 μM; 25 mM Tris-HCl pH 8.0, 150 mM NaCl, 40 mM imidazole, 5% glycerol, 0.05% Tween-20; Monolith NT.115; 'preliminary Kd'.

The values that follow come from publication PMC4945075.

By Kd is commonly meant the constant that tells how readily two partners part at equilibrium.

B1: His6-tagged cyt-RodZ (cytosolic part of RodZ) (domain or fragment)
chain: MFVVTELGIRLKEAREEKAMSLDDLQAATKIQKRYLTALEEGNYDIIPGKFYVRAFIKQYAEAVGLDADQLFEEHKKDIPNTYHDDVSEKI
Molecule B1 yielded a dissociation constant (Kd) of 10 µM.
